In PMC6274713:
pKd: −log10 of the molar value.

What was measured:
MLL4 3500-3630 = MLL4 3500-3630 (UniProt O14686); experiment: MST; conditions: EMSA: LightShift RNA EMSA kit protocol, 1 or 2 nM RNA, 30 min at room temperature, 4 or 6% native PAGE, MST buffer, pH and temperature not given in the …
MLL4 4210-4280 = MLL4 4210-4280 (UniProt O14686); experiment: MST; conditions: apparent Kd; EMSA: LightShift RNA EMSA kit protocol, 1 or 2 nM RNA, 30 min at room temperature, 4 or 6% native PAGE; MST buffer, pH and temperature not given in the …

Substance | pKd (MLL4 3500-3630) | pKd (MLL4 3500-3630; apparent, from T-jump, aggregation above 1:20 RNA:protein, no saturation) | pKd (MLL4 4210-4280)
HOTAIR300 | 6.01 | – | –
HOTAIR440 | – | 7.00 | 4.88
MEG3 full length | 6.14 | – | –
